Experimental data from publication PMC4846058.

Legend:
ixekizumab (human) = experiment: SPR
[1] = biological target: cynomolgus monkey IL-17A (Macaca fascicularis); experiment: SPR

Substance	KD, heterogeneous ligand model, first set (ixekizumab (human)) [nM]	KD, heterogeneous ligand model, second set (ixekizumab (human)) [nM]	koff, heterogeneous ligand model, first set (ixekizumab (human)) [s⁻¹]	koff, heterogeneous ligand model, second set (ixekizumab (human)) [s⁻¹]	kon, heterogeneous ligand model, first set (ixekizumab (human)) [M⁻¹ s⁻¹]	Kd [1] [pM]
rabbit IL-17A (ligand)	1.3	14	0.00017	0.11	150000	
ixekizumab (antibody)						0.8
